Experimental data from patent publication US12006368 (SURROZEN OPERATING, dated 2024).
Values belong to the binder of their own block, whether it stands above or below them.

What was measured:
[1] = biological target: hFzd1 CRD-Xtal (hFzd1_Q9UP38_101-230) (human, UniProt Q9UP38 101-230); experiment: size-exclusion chromatography of the Fzd CRD_Xtal:Fab mixture
Experimental: (§1) Purfied Fzd CRD_Xtal and Fab binders were mixed at 1.1:1 molar ratio (little excess of the smaller molecular weight protein), and incubated with carboxy-peptidase A and B at a w/w ratio of 100:1 for over-night at 4° C. Complex formation was confirmed by observation of a single-major peak on SuperdexS200 Increase (10/300 GL) column pre-equilibrated in HBS. Fractions containing complexes were further checked by SDS-PAGE, and concentrated to a range from 10 to 55 mg/mL for crystallization screens. Initial crystallization screen, using commercially available MCSG1, MCSG2, MCSG3, MCSG4, PACT (Molecular Dimensions), PEGs I, and PEGs II (Qiagen) screen, and optimization by grid-screens or microseed matrix screen [MMS; Microseed matrix screening for optimization in protein crystallization: what have we learned? D'Arcy, A., Bergfors, T., Cowan-Jacob S. W., and Marshd, M. Acta Cryst. F70, 1117-1126 (2014)]. were performed using Mosquito (TTP LabTech) liquid handler, and equilibrated at 18° C. inside an EchoTherm incubator (Torrey Pines Scientific). 96-well plate crystal screening experiments were periodically monitored manually via a DiscoveryV20 stereomicroscope (Zeiss), and crystals were frozen for data collection by plunging into liquid nitrogen in the presence of various cryo-protectants (typically 15 to 30% v/v of glycerol or ethyleneglycol). X-ray diffraction datasets were collected at the Berkeley Center for Structural Biology at the Advanced Light Source (ALS), Berkeley CA, and processed with XDS [Kabsch, W. XDS. Acta Cryst. D66, 125-132 (2010)], and xdsme [Legrand, P. XDSME: XDS Made Easier (2017) GitHub repository, https://github-.com/legrandp/xdsme DOI 10.5281/zenodo.837885]. programs. Structure of Fzd:Fab complexes were determined by molecular replacement method using Phaser with constant and variable domains of related Fabs are template [Phaser crystallographic software. A. J. McCoy, R. W. Grosse-Kunstleve, P. D. Adams, M. D. Winn, L. C. Storoni, and R. J. Read. J Appl Crystallogr 40, 658-674 (2007)], followed by refinement and validation by MolProbity as implemented in Phenix [PHENIX: a comprehensive Python-based system for macromolecular structure solution.

[2] = biological target: T1, Fzd1 cysteine rich domain (CRD), C-terminally biotinylated (human, UniProt Q9UP38 101-230); experiment: summary in Table 3; method not given there
[3] = biological target: T2, Fzd7 cysteine rich domain (CRD), C-terminally biotinylated (human, UniProt O75084 36-165); experiment: summary in Table 3; method not given there
[4] = biological target: T1, Fzd1 cysteine rich domain (CRD), …; experiment: BLI; *=Kd <100 nM
Experimental: (§2) Binding kinetics of antibody fragments to a variety of Fzd cysteine rich domain (CRD) protein targets (Fzd1, Fzd2, Fzd3, Fzd4, Fzd5, Fzd6, Fzd7, Fzd8, Fzd9 and/or Fzd10 CRDs) was determined by bio-layer interferometry (BLI) using Octet Red 96 (PALL ForteBio, Fremont, CA) instruments at 30° C., 1000 rpm with streptavidin (SA) biosensors. C-terminal biotinylated Fzd CRD recombinant protein was diluted to 20 nM in the running buffer (PBS, 0.05% Tween-20, 0.5% BSA, pH 7.2) and captured to the SA biosensor until coupling length reached 0.2 nm. Following capture of the Fzd CRD, the SA biosensor with captured biotinylated-Fzd CRD was dipped into wells containing the relevant antibody fragment at […] (0, 1.37, 4.12, 12.4, 37, 111.1, 333.3, 1000 nM) in running buffer, plus a well with only running buffer as a reference channel. […] was determined by global fitting, 1:1 binding model according to manufacturer recommended settings.
(§3) Table 1B provides clone IDs, the sequence identifier number of the antibody heavy chain fragment and/or light chain fragment, if present, for illustrative clones. In certain embodiments, the Fzd binding domain is an Fab or was derived from an Fab, so the heavy chain of Table 1B includes VH and CH1 sequence, but not CH2 or CH3 sequences. In certain embodiments, the Fzd binding domain is a VHH or sdAb® or was derived from a VHH or sdAb, so Table 1B includes the VHH domain. […] The Kd values were determined by BLI as described above. Blank entries denote that the binding to the specific Fzd receptor has not yet been determined. The entry of "n.b." indicates no binding.

[5] = biological target: T2, Fzd7 cysteine rich domain (CRD), …; experiment: BLI; *=Kd <100 nM
Experimental: as §2, §3

[6] = biological target: T3, Fzd2 cysteine rich domain (CRD), C-terminally biotinylated (human, UniProt Q14332 24-155); experiment: BLI; **=Kd 100-2000 nM
Experimental: as §2, §3

[7] = biological target: T3, Fzd2 cysteine rich domain (CRD), …; experiment: BLI; *=Kd <100 nM
Experimental: as §2, §3

[8] = biological target: T1, Fzd1 cysteine rich domain (CRD), …; experiment: BLI; *=Kd <=100 nM
Experimental: as §2
(§4) One antibody fragment, clone 001S-A04, was selected for alanine-scanning mutagenesis of CDRs, and the respective Fzd1 binding affinities of the various mutants were determined by Octet BLI as described in Example 1.

[9] = biological target: T1, Fzd1 cysteine rich domain (CRD), …; experiment: BLI
Experimental: as §2, §4

Fzd5 = biological target: T4, Fzd5 (UniProt Q13467 27-152, limits assumed); experiment: phage ELISA on immobilised antigen
T4 construct: immobilised target antigen of the phage ELISA and the Fzd named in specificity sentences; also called Frizzled 5; Fz5
T4 sequence (looked up): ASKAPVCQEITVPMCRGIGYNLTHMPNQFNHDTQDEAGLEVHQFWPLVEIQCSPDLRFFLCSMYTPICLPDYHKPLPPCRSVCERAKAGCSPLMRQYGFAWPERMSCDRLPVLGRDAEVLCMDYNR
Experimental: (§5) Detection of bound phage was determined […] by turnover of TMB substrate (Thermo Fisher Scientific, Waltham, MA) at […] by anti-M13-HRP antibody (GE Healthcare, Pittsburgh, PA). Clones were identified as binding to a Fzd receptor when the fold OD 450 nm over background was greater than a threshold level.

[10] = biological target: T5, hFzd5 CRD-Xtal (hFzd5_Q13467_27-152) (human, UniProt Q13467 27-152); experiment: size-exclusion chromatography of the Fzd CRD_Xtal:Fab mixture
T5 construct: complex incubated with carboxypeptidase A and B before crystallisation
T5 sequence: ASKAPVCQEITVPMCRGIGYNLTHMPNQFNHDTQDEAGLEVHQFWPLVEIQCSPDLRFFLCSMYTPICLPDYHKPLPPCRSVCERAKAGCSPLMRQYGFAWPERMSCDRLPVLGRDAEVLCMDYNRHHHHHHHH
Experimental: as §1

Frizzled 6 = biological target: T6, Frizzled 6 (human, UniProt O60353 19-145, limits assumed); experiment: phage ELISA on immobilized antigen (initial binding)
T6 construct: the antigen of the phage ELISA is only called 'target antigen'; also called Fzd6; Fz6
T6 sequence (looked up): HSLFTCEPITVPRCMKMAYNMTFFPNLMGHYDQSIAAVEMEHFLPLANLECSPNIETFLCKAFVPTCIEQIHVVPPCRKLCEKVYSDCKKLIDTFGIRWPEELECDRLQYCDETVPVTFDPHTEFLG
Experimental: as §5

[11] = biological target: T7, hFzd3 CRD-Xtal (hFzd3_Q9NPG1_23-148) (human, UniProt Q9NPG1 23-148); experiment: size-exclusion chromatography of the Fzd CRD_Xtal:Fab mixture
T7 construct: complex incubated with carboxypeptidase A and B before crystallisation
T7 sequence: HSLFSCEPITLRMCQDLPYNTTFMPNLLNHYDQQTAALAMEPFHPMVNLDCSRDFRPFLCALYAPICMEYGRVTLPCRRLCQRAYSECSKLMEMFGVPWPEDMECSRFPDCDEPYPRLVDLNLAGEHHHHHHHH
Experimental: as §1

Frizzled 3 = biological target: T8, Frizzled 3 (human, UniProt Q9NPG1 23-148, limits assumed); experiment: phage ELISA on immobilised antigen (initial binding)
T8 construct: Target antigen immobilised on plates in the phage ELISA; also called Fzd3; Fz3
T8 sequence (looked up): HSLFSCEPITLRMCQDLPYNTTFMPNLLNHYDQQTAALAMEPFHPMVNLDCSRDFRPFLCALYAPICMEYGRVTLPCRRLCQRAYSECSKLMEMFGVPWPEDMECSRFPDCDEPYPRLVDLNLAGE
Experimental: as §5

B1: R2M9 (003S-E07) Fab (Fab, V domains shown)
VH: QVQLVQSGAEVKKPGSSVKVSCKASGYTFTNNFMHWVRQAPGQGLEWMGWINPNSGGTKYAQKFQGRVTITADESTSTAYMELSSLRSEDTAVYYCARSVGEVGATMLGIGVWYWFDPWGQGTLVTVSS
VL: not shown
notes: heavy chain with C-terminal hexa-histidine tag; carboxypeptidase A and B treated in the complex
binding result [1]: binds

B2: R2M9 (003S-E07) Fab (Fab, V domains shown)
VH: QVQLVQSGAEVKKPGSSVKVSCKASGYTFTNNFMHWVRQAPGQGLEWMGWINPNSGGTKYAQKFQGRVTITADESTSTAYMELSSLRSEDTAVYYCARSVGEVGATMLGIGVWYWFDPWGQGTLVTVSS
VL: not shown
notes: heavy chain entry ends in GSGSG-His6
binding result [2]: binds
binding result [3]: binds

B3: 001S-E02 (Fab, V domains shown)
VH: QVQLQESGPGLVKPSETLSLTCTVSGGSISGNNYYWGWIRQPPGKGLEWIGSIYFTGGTYYNPSLKSRVTISVDTSKNQFSLKLSSVTAADTAVYYCARVMLITDAFDIWGQGTMVTVSS
VL: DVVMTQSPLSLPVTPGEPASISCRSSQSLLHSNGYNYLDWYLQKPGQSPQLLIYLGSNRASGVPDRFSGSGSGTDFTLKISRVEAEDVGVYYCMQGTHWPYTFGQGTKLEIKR
Kd [4]: < 100 nM
Kd [5]: < 100 nM
Kd [6]: 100 to 2000 nM

B4: 001S-A04 (Fab, V domains shown)
VH: EVQLVQSGAEVKKPGASVKVSCKASGYTFTSYGISWVRQAPGQGLEWMGWISAYNGNTNYAQKLQGRVTMTTDTSTSTAYMELRSLRSDDTAVYYCASSKEKATYYYGMDVWGQGTTVTVSS
VL: QAVVLQEPSLSVSPGGTVTLTCGLSSGSVSTNYYPSWYQQTPGQAPRTLIYYTNTRSSDVPERFSGSIVGNKAALTITGAQPDDESVYFCLLYLGRGIWVFGGGTKLTVLG
notes: also called R2M3; WT
Kd [4]: < 100 nM
Kd [7]: < 100 nM
Kd [5]: < 100 nM
KD [8]: ≤ 100 nM

B6: 004S-E05 Fab (Fab, V domains shown)
VH: EVQLVESGGGLVQPGGSLRLSCAASGFTFSTYEMNWVRQAPGKGLEWVSGVSWNGSRTHYVDSVKGRFTISRDNSKNTLYLQLNSLRAEDTAVYYCARGQSEKWWSGLYGMDVWGQGTTVTVSS
VL: DIQMTQSPSSLSASVGDRVTITCRASQGISSALAWYQQKPGKAPKLLIYAASALQSGVPSRFSGSGSGTDFTLTISSLQPEDFATYYCQQTYSTPRTFGPGTKVDIKR
notes: Fab chains as crystallised (heavy chain with hexa-histidine tag); also called 004S-E050
binding result (Fzd5): binds
binding result [10]: binds

B7: 004S-E09 (antibody, V domains shown)
VH: QVQLVQSGAEVKKPGASVKVSCKASGDTFSNYVISWVRQAPGQGLEWMGRISAYNGYKSYAQNFQGRVTMTRDTSTSTVYMELSSLRSEDTAVYYCARSSGYVGWFDPWGQGTLVTVSS
VL: not shown
binding result (Frizzled 6): binds

B8: 029S-E03 Fab (Fab, V domains shown)
VH: QVQLVQSGAEVKKPGASVKVSCKASGYTFTGYYMHWVRQAPGQGLEWMGWINPNSGNTGYAQKFQGRVTMTRDTSTSTVYMELSSLRSEDTAVYYCARSYYGVIDAFDIWGQGTMVTVSS
VL: DIQMTQSPSSLSASVGDRVTITCRASQSISSYLNWYQQKPGKAPKLLIYAASSLQTGVPSRFSGSGSGTDFTLTISSLQPEDFATYYCQQSFRLPLTFGQGTKVEIKR
notes: as for B1
binding result [11]: binds

Continued, values first:

binding result [9]: no binding (tested: 1000 nM)
B5: 001S-A04 mutant VHY8A (Fab, V domains shown)
VH: EVQLVQSGAEVKKPGASVKVSCKASGYTFTSYGISWVRQAPGQGLEWMGWISAYNGNTNYAQKLQGRVTMTTDTSTSTAYMELRSLRSDDTAVYYCASSKEKATYAYGMDVWGQGTTVTVSS
VL: QAVVLQEPSLSVSPGGTVTLTCGLSSGSVSTNYYPSWYQQTPGQAPRTLIYYTNTRSSDVPERFSGSIVGNKAALTITGAQPDDESVYFCLLYLGRGIWVFGGGTKLTVLG

binding result (Frizzled 3): binds
B9: 029S-E03 (Fab, V domains shown)
VH: QVQLVQSGAEVKKPGASVKVSCKASGYTFTGYYMHWVRQAPGQGLEWMGWINPNSGNTGYAQKFQGRVTMTRDTSTSTVYMELSSLRSEDTAVYYCARSYYGVIDAFDIWGQGTMVTVSS
VL: DIQMTQSPSSLSASVGDRVTITCRASQSISSYLNWYQQKPGKAPKLLIYAASSLQTGVPSRFSGSGSGTDFTLTISSLQPEDFATYYCQQSFRLPLTFGQGTKVEIKR

binding result [10]: binds
B10: 4A12 Fab (Fab, V domains shown)
VH: QVQLQQSGPELVKPGASVKLSCKASGYTFTNYDINWVKQRPGQGLEWIGWIYPRDGSTKYNEKFKGKATLTVDTSSSTAYMELHSLTSEDSAVYFCVRSAWGFAYWGQGTLVTVSA
VL: DIVMTQSHKFMSTSVGDRVSITCKASQDVGTAVAWYQQKPGQSPKLLIYWASTRHTGVPDRFTGSGSGTDFTLTINNVQSEDLADYFCQQYSTYPLTFGAGTKLELKR
notes: as for B1
